B1: Hairpin Ribozyme (parent)
chain: GUCCUCUUUCACGUGCGCGUGAAAGAGAGAAGUGAACCAGAGAAACACACGUUGUGGUAUAUUACCUGGUA

Variants of: B1
Experiment: self-cleavage, relative activity (ratio to wild type); higher = more cleavage; co-transcriptional

Variant | self-cleavage
U20G A31U | 0.0664
G19C A71G | 1.07
G19C A71U | 0.722
G19A A49G | 0.595
G19U G40U | 0.194
U20C G40U | 0.19
U20C G40A | 0.314
U20C C38A | 0.152
U20A C48A | 0.23
U20A C48G | 0.219
G19C G25U | 0.623
G19C G25A | 0.512
G19C U62A | 0.228
G19C U62C | 0.283
C18U A47U | 0.178
G19C G34A | 1.08
C18U U52A | 1.09
U20A A64U | 0.135
G19C U53C | 0.679
U20A A23U | 0.785
U20A A23G | 0.783
G19U U70C | 0.722
G19U U70A | 0.773
G19A A61G | 0.158

Variant | self-cleavage
G19A A61U | 0.147
U20A A61G | 0.11
U20A A61U | 0.238
G19A C38G | 0.159
U20A G21C | 0.691
G19A G56U | 0.123
U20A A31U | 0.148
G19C G42U | 0.24
G19U A44C | 0.275
G19C C65G | 0.25
G19C C65A | 0.877
G19C U58A | 0.569
G19U A23G | 0.932
G19C A24G | 0.889
G19C A24U | 0.533
G19C A24C | 0.639
G19A A59U | 0.0875
G19U A24C | 0.79
U20C G21A | 0.686
U20C G21U | 0.652
U20G A45G | 0.128
U20C G69A | 0.435
U20C G69C | 0.239
U20C U63C | 0.184

Variant | self-cleavage
G19A U33C | 0.0941
G19A U33G | 0.175
G19A U58G | 0.583
G19A U58A | 0.557
U20C A35G | 0.71
C18U U60A | 0.883
U20G G21U | 0.754
G19U C46A | 0.17
G19U C46G | 0.157
G19A G51U | 0.881
G19A G51C | 0.702
U20C U67C | 0.2
U20A C38A | 0.168
U20G G40C | 0.188
G19C A36C | 0.374
G19U A22C | 0.625
G19U A22G | 0.715
G19U C65U | 0.306
U20A G54U | 0.547
U20A G54C | 0.362
C18U U70A | 0.899
U20A G27U | 0.203
G19A C37U | 0.567
G19A A44C | 0.0966

Variant | self-cleavage
U20A U70C | 0.663
U20G C66A | 0.0821
U20G C66G | 0.219
U20A A59U | 0.144
U20A U58G | 0.762
U20A U58A | 0.709
U20A G29U | 0.165
U20A G29C | 0.203
U20A C65G | 0.182
U20A C65A | 0.857
U20G C48A | 0.203
G19C G27C | 0.133
G19C G27U | 0.27
G19C G27A | 0.361
C18U C50U | 0.326
G19U A61U | 0.183
G19A U67A | 0.264
U20C G54C | 0.373
U20C U55G | 0.426
U20C U55C | 0.159
G19C C48U | 0.132
G19C C48A | 0.122
G19C G56U | 0.0712
G19A G29C | 0.184

Variant | self-cleavage
G19A G29A | 0.173
U20G G25C | 0.643
G19U A39C | 0.502
G19U A39U | 0.324
G19C U52G | 0.898
C18U G40A | 0.265
C18U G40U | 0.244
U20G G42U | 0.245
U20G G42C | 0.206
G19U U33A | 0.237
G19U U33C | 0.202
G19U U33G | 0.117
U20G A47U | 0.0722
G19C G32C | 0.0926
C18U G21U | 0.814
C18U G21A | 0.833
C18U G21C | 0.883
G19C A22U | 0.487
G19U U52A | 0.881
G19U U52C | 0.818
U20A U60A | 0.607
G19U U63C | 0.164
U20G U52G | 0.772
G19A U53C | 0.854

Variant | self-cleavage
G19A U53G | 0.691
U20C A39U | 0.315
U20C A39G | 0.311
U20G A49U | 0.148
U20G A30U | 0.137
U20G A30G | 0.148
G19A A24C | 0.615
U20G G29C | 0.18
U20G G29A | 0.0828
U20A G40A | 0.242
U20C C65U | 0.284
U20C C65A | 1
G19A A64U | 0.198
U20A A44U | 0.177
U20A A44G | 0.112
U20A A71G | 0.89
U20C G32C | 0.0574
G19U A30C | 0.128
C18U C38G | 0.158
U20A A24C | 0.81
U20A G42C | 0.306
G19C U67C | 0.176
U20A A30G | 0.184
U20C A26G | 1.06

Variant | self-cleavage
U20G U33A | 0.158
U20G U33G | 0.11
G19U U55G | 0.313
G19U U55A | 0.287
U20A A41C | 1.28
U20A A41U | 1.16
G19A U63G | 0.2
U20G G32C | 0.105
U20G G32U | 0.162
U20G A44U | 0.0389
G19A U70G | 0.917
G19U G32U | 0.118
G19U G32C | 0.137
G19U C66U | 0.334
U20G G54U | 0.595
U20G G54A | 0.417
U20C A23G | 1
U20A A47C | 0.293
G19C A64G | 0.545
U20C A45G | 0.165
U20C C66G | 0.152
U20G G57A | 0.195
G19C U33G | 0.0947
